Experimental data from patent US9969998B2, “Compositions of adenosine deaminase-2 (ADA2), variants thereof and methods of using same” (Halozyme, Inc., priority 2014, dated 2018).
Substitutions are numbered along the chain they refer to. In names and notes the source's numbering stands. Entries after “also recorded” stand apart in the source; their conditions may differ.

B1: ADA2: wild-type human adenosine deaminase 2, mature form SEQ ID NO:5, homodimer (protein, listed as Homo sapiens)
chain: IDETRAHLLLKEKMMRLGGRLVLNTKEELANERLMTLKIAEMKEAMRTLIFPPSMHFFQAKHLIERSQVFNILRMMPKGAALHLHDIGIVTMDWLVRNVTYRPHCHICFTPRGIMQFRFAHPTPRPSEKCSKWILLEDYRKRVQNVTEFDDSLLRNFTLVTQHPEVIYTNQNVVWSKFETIFFTISGLIHYAPVFRDYVFRSMQEFYEDNVLYMEIRARLLPVYELSGEHHDEEWSVKTYQEVAQKFVETHPEFIGIKIIYSDHRSKDVAVIAESIRMAMGLRIKFPTVVAGFDLVGHEDTGHSLHDYKEALMIPAKDGVKLPYFFHAGETDWQGTSIDRNILDALMLNTTRIGHGFALSKHPAVRTYSWKKDIPIEVCPISNQVLKLVSDLRNHPVATLMATGHPMVISSDDPAMFGAKGLSYDFYEVFMGIGGMKADLRTLKQLAMNSIKYSTLLESEKNTFMEIWKKRWDKFIADVATK
modifications: ADA2 mature protein
B2: PEG-K374D: rHuADA2-K374D (SEQ ID NO:20) PEGylated on surface exposed lysines with linear PEG-20K (conjugate)
chain: B1 chain with K371D
modifications: linear PEG-20K on surface lysines; human ADA2 K371D, mature numbering

How the values were obtained:
[1] = Stability of ADA activity in plasma; format: in vitro ADME, mouse; details: long incubation (e.g., 24 hours) in plasma
Experimental: For therapeutic uses, such as for treatment of tumors or cancers, it is desirable to administer to the subject a dosage of ADA2 that will maintain plasma adenosine deaminase (ADA) activity for a sufficient time for therapeutic effect. […] The plasma stability of any ADA2 described herein, such as a wildtype, variant or conjugate, can be determined by measuring the changes in enzymatic activity and/or other physical properties, before and after incubation in plasma, e.g., ex vivo mammalian plasma.
Stability can be assessed in vitro or in vivo. For example, stability can be tested after exposure to plasma for a desired length of time, which can be empirically determined or selected by a skilled artisan depending on the desired length of time. For example, the incubation time can be at least 1 hour, such as at least 2, 3, 4, 5, 10, 15, 20, 24, 30, 36, 48, 60, 72 hours or more. The protein can be directly administered systemically, such as intravenously, and activity can be assessed. In other examples, the protein can be subject to appropriate incubation conditions in vitro. In one example, the stability of ADA activity of any ADA2 provided herein can be measured after incubation at 37° C., in 25% ex vivo plasma or serum, such as human or non-human plasma or serum, for example, mouse plasma. […]

[2] = system: mixture of NK and T (NK/T) cells; assay: T-cell or NK/T cell proliferation assay in the presence of adenosine; format: cell-based
Source text: Reversal of adenosine-mediated immunosuppression by any ADA2 provided herein, including wildtype and variants, conjugates and other modified forms thereof, and combination therapy using any ADA2 provided herein and other agents, can be examined in vitro, for example, by performing proliferation assays. Such assays include, but are not limited to T-cell proliferation assays or a mixture of NK and T (NK/T) cell proliferation assays, in the presence of adenosine and/or any ADA2 provided herein and/or any other combination therapy agents. For example, the immunosuppressive effect of adenosine on various immune cells, such as lymphocytes, natural killer (NK) cells, polymorphonuclear granulocytes, and phagocytic cells such as tissue macrophages, can be assessed by proliferation assays using the immune cells or mixtures thereof, such as the mixture of NK and T (NK/T) cells prepared from peripheral blood mononuclear cells (PBMC). The effect of any ADA2 provided herein and any other combination therapy agents provided herein, can be assessed by comparing the results of such proliferation assays in the presence of adenosine, with or without the addition of any ADA2 provided herein and/or any other combination therapy agents provided herein, including immune checkpoint inhibitors. Combination therapy agents are described in Section H.4 below. […]

[3] = Distribution in normal organs of naive mice vs. CT26 tumors (IVIS); format: in vivo, Balb/c mice; details: 24 hr; for (Fluorescent intensity/Tissue Weight) - Baseline: 0.5 mg/kg IV
Experimental: To assess the distribution and elimination of administered PEG-ADA2-K374D in the tumor microenvironment or in normal organs, immunofluorescence was used to assess the presence of PEG-ADA2-K374D administered to mice. PEG-ADA2-K374D was labeled at room temperature for 60 minutes with DyLight755 Sulfydryl-Reactive Dye (DL755), a near-IR fluor, using the DyLight 755 Antibody Labeling Kit (Thermo Scientific, Rockford, Ill.). Alexa Fluor 750 (AF 750) labeled bovine serum albumin (BSA, 1 mg/mL) was purchased from (Life Technology, Carlsbad, Calif.).
To compare the distribution in naïve mice, CT26-tumor bearing mice were generated as described above, and were intravenously administered PEG-ADA2-K374D^DL755 at 0.5 mg/kg (n=3). Separately, naïve Balb/c mice also were intravenously administered PEG-ADA2-K374D^DL755 at 0.5 mg/kg (n=4). The mice were sacrificed and transcardically perfused with heparin normal saline 24 hours post PEG-ADA2-K374D^DL755 injection. Tumors from tumor-bearing mice and organs from naïve mice were collected and imaged with IVIS image system, and DL755 signal intensity was measured with LivingImage software as described above. Signal intensity was normalized by tissue organ weight.

Molecule | stability in plasma [1] | reversal of adenosine-mediated immunosuppression [2] | (Fluorescent intensity/Tissue Weight) - Baseline ([3]; Bone, naive mice) | (Fluorescent intensity/Tissue Weight) - Baseline ([3]; Brain, naive mice) | (Fluorescent intensity/Tissue Weight) - Baseline ([3]; Colon, naive mice) | (Fluorescent intensity/Tissue Weight) - Baseline ([3]; Heart, naive mice) | (Fluorescent intensity/Tissue Weight) - Baseline ([3]; Kidney, naive mice) | (Fluorescent intensity/Tissue Weight) - Baseline ([3]; Liver, naive mice) | (Fluorescent intensity/Tissue Weight) - Baseline ([3]; Lung, naive mice) | (Fluorescent intensity/Tissue Weight) - Baseline ([3]; Spleen, naive mice) | (Fluorescent intensity/Tissue Weight) - Baseline ([3]; Tumor, CT26 tumor-bearing mice) | Signal Intensity (Tumor vs Organ) ([3]; ratio tumor/Bone) | Signal Intensity (Tumor vs Organ) ([3]; ratio tumor/Brain) | Signal Intensity (Tumor vs Organ) ([3]; ratio tumor/Colon) | Signal Intensity (Tumor vs Organ) ([3]; ratio tumor/Heart) | Signal Intensity (Tumor vs Organ) ([3]; ratio tumor/Kidney) | Signal Intensity (Tumor vs Organ) ([3]; ratio tumor/Liver) | Signal Intensity (Tumor vs Organ) ([3]; ratio tumor/Lung) | Signal Intensity (Tumor vs Organ) ([3]; ratio tumor/Spleen)
B1 | more stable than ADA1 | reverse the adenosine-dependent immunosuppression; also recorded: reversed |  |  |  |  |  |  |  |  |  |  |  |  |  |  |  |  | 
B2 |  |  | 1.82E+06 | 2.11E+05 | 9.13E+05 | 5.55E+05 | 8.61E+05 | 4.02E+06 | 1.22E+06 | 2.98E+06 | 6.22E+06 | 3.4 | 29.5 | 6.8 | 11.2 | 7.2 | 1.5 | 5.1 | 2.1
